Test [1] deals with CD4+T cells, CD8+T cells, NK cells, macrophages. The experiment in a line: Immune cell deletion analysis of conjugate efficacy. Type of test: in vivo, Balb/c mice. From the text: Balb/c mice were randomized into 6 groups of 6 mouse each. Corresponding groups are: MFC group, Nb16-SZU-101 group, Nb16-SZU-101+anti-CD4 group, Nb16-SZU-101+anti-CD8 group, Nb16-SZU-101+anti-NK1.1 group, Nb16-SZU-101+chlorophosphate liposome group. The administration of the mFc and Nb16-SZU-101 was consistent with example 8.1.
The immune cell deletion method comprised: deleting corresponding immune cells (CD4+T cells, CD8+T cells, NK cells) by intraperitoneal injection of antibody drugs (anti-CD4, anti-CD8, anti-NK1.1) respectively in Day 3 (200 ug/one)/Day 4 (100 ug/one)/Day 5 (100 ug/one), or intraperitoneal injection of chlorophosphate-liposomes to remove macrophages.
On Day 14 the mice would be euthanized.

For test [2], the system named is uninduced CT26 tumor cell. Description: Early CT26 subcutaneous tumor-bearing model (tumor volume<50 mm^3). It is filed as in vivo, BALB/c mouse. The protocol:
(§1) The uninduced CT26 tumor cell subcutaneous was inoculated into a female BALB/C mouse to construct a tumor-bearing mouse model in the two models, and the inoculation amount was 1×10^6 cells/; the mice were divided into two groups, and each group was 8 mice, that is, a blank control group mFc (the concentration was 10 mg/kg), and a coupling compound Nb16-SZU-101 group (the concentration was 10 mg/kg); and the administration dosage was 200 μL, and the administration manner was an abdominal administration. In the early model (the tumor volume was<50 mm^3), the drug was administered in Day 4, Day 7, Day 10, Day 13, Day 16, and the drug was administered for 5 times; in the late model (the tumor volume was greater than 200 mm^3), the drug was administered in Day 9, Day 12, Day 15, Day 17, and the drug was administered for 4 times. The tumor size was measured 2-3 times a week, and a tumor growth curve was drawn.

For the next test, the system named is induced CT26. The experiment in a line: Induced (high expression) PD-L1 CT26 subcutaneous tumor-bearing model. It is filed as in vivo, BALB/c mouse. Conditions: 10 mg/kg intraperitoneal, 4 doses. The source says:
(§2) In FIG. 8A, it has been shown that the non-induced CT26 cell surface PD-L1 expression is approximately 17.3%, and the expression level of PD-L1 is increased to 98.1% only after IFN-γ induction. Therefore, we researched and compared the effects of the coupling compound in the non-induced and induced CT26 mouse tumor model, respectively.
(§3) In the two models, CT26 tumor cells were subcutaneously inoculated into female BALB/c mice before and after induction respectively to construct tumor-bearing mouse models, and the inoculation amount was 1×10^6 cells/one; the mice are randomly divided into two groupswith 6 mice of each group, that is, a blank control group mFc (the concentration is 10 mg/kg), and a coupling compound Nb16-SZU-101 group (the concentration was 10 mg/kg); the administration dosage was 200 μl, and the administration modes were both intraperitoneal administration; administration was performed on Day 2, Day 5, Day 8 and Day 11 respectively, and administration was carried out for 4 times; the size of the tumor was measured for 2-3 times every week, and a tumor growth curve was drawn; and anatomical weighing and photographing were performed on the mouse at Day 12.

The test system of another test is non-induced CT26. The experiment in a line: Uninduced (low expression) PD-L1 CT26 subcutaneous tumor-bearing model. The conditions noted are these: 10 mg/kg intraperitoneal, 4 doses. It is filed as in vivo, BALB/c mouse.
Description: as §2, §3

For test [3], the system named is tumor immune microenvironment (CT26 subcutaneous tumors). Description: Tumor immunotyping analysis by flow cytometry after conjugate administration. The conditions noted are these: compared to mFc group. It is filed as in vivo, BALB/c mouse. As for the experimental part: At a mouse anatomical endpoint of example 8.1, subcutaneous tumors were taken, 150 mg of tumor tissue was taken and cut into meat paste, and the meat paste was oscillated and digested at 180 rpm for 1.5 h at 37° C. in hyaluronidase and collagenase IV, and processed into a single cell suspension. The pretreated cell suspension was divided into two parts, one part was used for immunotyping analysis of macrophages and dendritic cells, and one part was used for immune typing analysis of T cells and NK cells.
The suspension treatment of macrophages and dendritic cell samples: the cells were treated with 2-4 mL sterile red blood cell lysis solution for 8 min and terminated with PBS buffer solution to remove red blood cells and fragments in the sample suspension; the cell sample was cleaned for use.
T cell and NK cell sample suspension treatment: the cells were centrifuged with lymphocyte separation liquid to obtain a lymphocyte separation layer, that is, the lymphocyte separation layer was a tumor lymphocyte suspension, and wascleaned for use.
The macrophages and dendritic cell samples and T cells and NK cell samples were sealed at 4° C. with an Fc receptor confining liquid for 1 hour, and non-specific staining caused by the Fc receptor was removed; cell surface protein staining is performed, specifically: M1 macrophages (FITC Rat Anti-Mouse CD45, PE-Cyanine7 Rat Anti-Mouse F4/80 and APC Rat anti-Mouse CD86), M2 macrophages (FITC RATw Anti-Mouse CD45 and PE-Cynine 7 RAT Anti-Mouse F4/80), dendritic cells (PE-Cy7 Anti-Mouse CD11c, BB515 Rat Anti-Mouse I-A/I-E, PE Hamster Anti-Mouse CD80, and APC Rat anti-Mouse CD86), CD4+T cells and CD8+T cells (FITC Hamster Anti-Mouse CD3e, PerCP-Cy™ 5.5 Rat Anti-Mouse CD4 and APC Rat Anti-Mouse CD8a), Treg cells (FITC Hamster Anti-Mouse CD3e, PerCP-CYy™ 5.5 Rat Anti-Mouse CD4 and PE Rat Anti-Mouse CD25), NK cells (CD3-FITC, CD49b-APC, CD69-PE), followed by dyeing on ice for 20 min.; then intracellular protein staining is performed, and after the cell is subjected to a fixed membrane rupture treatment, the cell is subjected to membrane rupture dyeing, specifically: M2 macrophages (MS CD206 Alexa 647 and ANTI-MOUSE LAP PE), functional T cells(ANTI-MOUSE GRANZYME B (NGZB) PE) containing granzyme, functional T cells (PE Rat Anti-Mouse IFN-γ) containing IFN-γ, Treg cells (ANTI-MOUSE/RAT FOXP3 APC), and then stained for 20 min on ice; after cleaning, re-suspending the sample cell sap, and performing on-machine detection on the flow cytometer.
On the technique in general: In flow cytometry, cells or beads pass a laser one at a time.

Test [4] relates to uninduced CT26 tumor cell. Description: Late CT26 subcutaneous tumor-bearing model (tumor volume>200 mm^3). It is filed as in vivo, BALB/c mouse. As for the experimental part: as §1

B1: Nb16-SZU-101: PD-L1 and TLR7 dual-targeting nanobody coupling drug, Nb16 coupled with SZU-101-NHS active ester (conjugate)
chain: QVQLQESGGGSVQAGGSLRLSCAASGYTDRNYWMGWFRQAPGKEREGVAALYTRTGSTYYADSVKGRFTISHDNAKNTLYLQMNSLKPEDTAVYYCAADSNAYGLAPLHHYWGQGTQVTVSS
modifications: left off: a dimerising Fc or GST
As for B1, in test [1] (anti-CD4 or chlorophosphate liposomes intraperitoneal), the “Effect of deletion of CD4+T cells and macrophages on efficacy” value was “little influence on the efficacy”. Also, the “Effect of deletion of CD8+T cells and NK cells on efficacy” value in test [1] (anti-CD8 or anti-NK1.1 intraperitoneal) is given as “greatly affects the efficacy”. The “Lifetime (survival)” value in test [2] and in test [4] was “significantly prolong the lifetime” each time. The “Tumor growth inhibition rate” value is 80.3% in test [2] (10 mg/kg abdominal administration, 5 doses); 83.6% in the test with induced CT26; 78.9% in the test on non-induced CT26; 78.9% in test [4] (10 mg/kg abdominal administration, 4 doses). Besides, the “Tumor-bearing mice with tumor regression” value was “up to 62.5%” in test [2] (10 mg/kg, 5 doses) and 12.5% in test [4] (10 mg/kg, 4 doses). Moreover, the “Expression of granzyme B and IFN-γ in tumor-infiltrating cytotoxic cells” value in test [3] was “promote the expression”. For the same molecule, in test [3], the “Function of tumor-infiltrating cytotoxic cells (CD8+T cells and NK cells)” value was “significantly increases”. In addition, the “Infiltration of IFN-γ+CD4+T cells” value in test [3] was “significantly increased”. Also, the “Infiltration of TGF-β+macrophages” value in test [3] was “reduce the infiltration”. For the same molecule, the “Macrophage expression of PD-L1 in tumor microenvironment” value in test [3] is on record as “promotes macrophage expression of PD-L1”. For the same molecule, the “Re-polarization of tumor-associated macrophages” value in test [3] is on record as “promote the re-polarization”. For the same molecule, the “Maturation of dendritic cells” value in test [3] (tumors of example 8.1) was “promotes maturation of dendritic cells”.

Values taken from patent US20240189443A1, “PD-L1 AND TLR7 DOUBLE-TARGETING NANOBODY COUPLING DRUG AND USE THEREOF IN ANTI-TUMOR” (SHANGHAI INSTITUTE OF MATERIA MEDICA, CHINESE ACADEMY OF …, priority 2021, published 2024).
